Changes are numbered by the printed parent chain.
B1: 106 (protein)
chain: STAIAQEGAAPAAILHPEKWPRPATQRLIDPAVEKRVDALLKQLSVEEKVGQVIQGDIGTITPEDLRKYPLGSILAGGNSGPNGDDRAPPKEWLDLADAFYRVSLEKRPGHTPIPVLFGIDAVHGHGNIGSATIFPHNIALGATRDPELLRRIGEVTAVEMAATGIDWTFAPALSVVRDDRWGRTYEGFSEDPEIVAAYSAAIVEGVQGKFGSKDFMAPGRIVASAKHFLADGGTDQGRDQGDARISEDELIRIHNAGYPPAIDAGVLTVMASFSSWQGIKHHGHKQLLTDVLKGQMGFNGFIVGDWNAHDQVPGCTKFNCPTSLIAGLDMYMAADSWKQLYENTLAQVKDGTIPMARLDDAVRRILRVKVLAGLFEKPAPKDRPGLPGLETLGSPEHRAVGREAVRKSLVLLKNDKGTLPLSPKARVLVAGDGADNIGKQSGGWTISWQGTGNRNDEFPGATSILGGIRDAVADAGGSVEFDVAGQYKTKPDVAIVVFGEEPYAEFQGDVETLEYQPDQKQDLALLKKLKDQGIPVVAVFLSGRPMWVNPELNASDAFVAAWLPGTEGGGVADVLFTDKAGKVQHDFAGKLSYSWPRTAAQTTVNRGDADYNPLFAYGYGLTYKDKSKVGTLPEE
B2: 105 (protein)
chain: STAIAQEGAAPAAILHPEKWPRPATQRLIDPAVEKRVDALLKQLSVEEKVGQVIQGDIGTITPEDLRKYPLGSILAGGNSGPNGDDRAPPKEWLDLADAFYRVSLEKRPGHTPIPVLFGIDAVHGHGNIGSATIFPHNIALGATRDPELLRRIGEVTAVEMAATGIDWTFAPALSVVRDDRWGRTYEGFSEDPEIVAAYSAAIVEGVQGKFGSKDFMAPGRIVASAKHFLADGGTDQGRDQGDARISEDELIRIHNAGYPPAIDAGVLTVMASFSSWQGIKHHGHKQLLTDVLKGQMGFNGFIVGDWNAHDQVPGCTKFNCPTSLIAGLDMYMAADSWKQLYENTLAQVKDGTIPMARLDDAVRRILRVKVLAGLFEKPAPKDRPGLPGLETLGSPEHRAVGREAVRKSLVLLKNDKGTLPLSPKARVLVAGDGADNIGKQSGGWTISWQGTGNRNDEFPGATSILGGIRDAVADAGGSVEFDVAGQYKTKPDVAIVVFGEEPYAEFQGDVETLEYQPDQKQDLALLKKLKDQGIPVVAVFLSGRPMWVNPELNASDAFVAAWLPGTEGGGVADVLFTDKAGKVQHDFAGKLSYSWPRTAAQTTVNRGDADYNPLFAYGYGLTYKDKSKVGTLP
B3: 107 (protein)
chain: STAIAQEGAAPAAILHPEKWPRPATQRLIDPAVEKRVDALLKQLSVEEKVGQVIQGDIGTITPEDLRKYPLGSILAGGNSGPNGDDRAPPKEWLDLADAFYRVSLEKRPGHTPIPVLFGIDAVHGHGNIGSATIFPHNIALGATRDPELLRRIGEVTAVEMAATGIDWTFAPALSVVRDDRWGRTYEGFSEDPEIVAAYSAAIVEGVQGKFGSKDFMAPGRIVASAKHFLADGGTDQGRDQGDARISEDELIRIHNAGYPPAIDAGVLTVMASFSSWQGIKHHGHKQLLTDVLKGQMGFNGFIVGDWNAHDQVPGCTKFNCPTSLIAGLDMYMAADSWKQLYENTLAQVKDGTIPMARLDDAVRRILRVKVLAGLFEKPAPKDRPGLPGLETLGSPEHRAVGREAVRKSLVLLKNDKGTLPLSPKARVLVAGDGADNIGKQSGGWTISWQGTGNRNDEFPGATSILGGIRDAVADAGGSVEFDVAGQYKTKPDVAIVVFGEEPYAEFQGDVETLEYQPDQKQDLALLKKLKDQGIPVVAVFLSGRPMWVNPELNASDAFVAAWLPGTEGGGVADVLFTDKAGKVQHDFAGKLSYSWPRTAAQTTVNRGDADYNPLFAYGYGLTYKDKSKVGTLPEESGVPAEAR
B4: 104 (protein)
chain: STAIAQEGAAPAAILHPEKWPRPATQRLIDPAVEKRVDALLKQLSVEEKVGQVIQGDIGTITPEDLRKYPLGSILAGGNSGPNGDDRAPPKEWLDLADAFYRVSLEKRPGHTPIPVLFGIDAVHGHGNIGSATIFPHNIALGATRDPELLRRIGEVTAVEMAATGIDWTFAPALSVVRDDRWGRTYEGFSEDPEIVAAYSAAIVEGVQGKFGSKDFMAPGRIVASAKHFLADGGTDQGRDQGDARISEDELIRIHNAGYPPAIDAGVLTVMASFSSWQGIKHHGHKQLLTDVLKGQMGFNGFIVGDWNAHDQVPGCTKFNCPTSLIAGLDMYMAADSWKQLYENTLAQVKDGTIPMARLDDAVRRILRVKVLAGLFEKPAPKDRPGLPGLETLGSPEHRAVGREAVRKSLVLLKNDKGTLPLSPKARVLVAGDGADNIGKQSGGWTISWQGTGNRNDEFPGATSILGGIRDAVADAGGSVEFDVAGQYKTKPDVAIVVFGEEPYAEFQGDVETLEYQPDQKQDLALLKKLKDQGIPVVAVFLSGRPMWVNPELNASDAFVAAWLPGTEGGGVADVLFTDKAGKVQHDFAGKLSYSWPRTAAQTTVNRGDADYNPLFAYGYGLTYKDKSKVGTLPEESGVPAEARQNAGIY
B5: 103 (protein)
chain: STAIAQEGAAPAAILHPEKWPRPATQRLIDPAVEKRVDALLKQLSVEEKVGQVIQGDIGTITPEDLRKYPLGSILAGGNSGPNGDDRAPPKEWLDLADAFYRVSLEKRPGHTPIPVLFGIDAVHGHGNIGSATIFPHNIALGATRDPELLRRIGEVTAVEMAATGIDWTFAPALSVVRDDRWGRTYEGFSEDPEIVAAYSAAIVEGVQGKFGSKDFMAPGRIVASAKHFLADGGTDQGRDQGDARISEDELIRIHNAGYPPAIDAGVLTVMASFSSWQGIKHHGHKQLLTDVLKGQMGFNGFIVGDWNAHDQVPGCTKFNCPTSLIAGLDMYMAADSWKQLYENTLAQVKDGTIPMARLDDAVRRILRVKVLAGLFEKPAPKDRPGLPGLETLGSPEHRAVGREAVRKSLVLLKNDKGTLPLSPKARVLVAGDGADNIGKQSGGWTISWQGTGNRNDEFPGATSILGGIRDAVADAGGSVEFDVAGQYKTKPDVAIVVFGEEPYAEFQGDVETLEYQPDQKQDLALLKKLKDQGIPVVAVFLSGRPMWVNPELNASDAFVAAWLPGTEGGGVADVLFTDKAGKVQHDFAGKLSYSWPRTAAQTTVNRGDADYNPLFAYGYGLTYKDKSKVGTLPEESGVPAEARQN
B6: 108 (protein)
chain: STAIAQEGAAPAAILHPEKWPRPATQRLIDPAVEKRVDALLKQLSVEEKVGQVIQGDIGTITPEDLRKYPLGSILAGGNSGPNGDDRAPPKEWLDLADAFYRVSLEKRPGHTPIPVLFGIDAVHGHGNIGSATIFPHNIALGATRDPELLRRIGEVTAVEMAATGIDWTFAPALSVVRDDRWGRTYEGFSEDPEIVAAYSAAIVEGVQGKFGSKDFMAPGRIVASAKHFLADGGTDQGRDQGDARISEDELIRIHNAGYPPAIDAGVLTVMASFSSWQGIKHHGHKQLLTDVLKGQMGFNGFIVGDWNAHDQVPGCTKFNCPTSLIAGLDMYMAADSWKQLYENTLAQVKDGTIPMARLDDAVRRILRVKVLAGLFEKPAPKDRPGLPGLETLGSPEHRAVGREAVRKSLVLLKNDKGTLPLSPKARVLVAGDGADNIGKQSGGWTISWQGTGNRNDEFPGATSILGGIRDAVADAGGSVEFDVAGQYKTKPDVAIVVFGEEPYAEFQGDVETLEYQPDQKQDLALLKKLKDQGIPVVAVFLSGRPMWVNPELNASDAFVAAWLPGTEGGGVADVLFTDKAGKVQHDFAGKLSYSWPRTAAQTTVNRGDADYNPLFAYGYGLTYKDKSKVGTLPEESGVP
B7: 109 (protein)
chain: STAIAQEGAAPAAILHPEKWPRPATQRLIDPAVEKRVDALLKQLSVEEKVGQVIQGDIGTITPEDLRKYPLGSILAGGNSGPNGDDRAPPKEWLDLADAFYRVSLEKRPGHTPIPVLFGIDAVHGHGNIGSATIFPHNIALGATRDPELLRRIGEVTAVEMAATGIDWTFAPALSVVRDDRWGRTYEGFSEDPEIVAAYSAAIVEGVQGKFGSKDFMAPGRIVASAKHFLADGGTDQGRDQGDARISEDELIRIHNAGYPPAIDAGVLTVMASFSSWQGIKHHGHKQLLTDVLKGQMGFNGFIVGDWNAHDQVPGCTKFNCPTSLIAGLDMYMAADSWKQLYENTLAQVKDGTIPMARLDDAVRRILRVKVLAGLFEKPAPKDRPGLPGLETLGSPEHRAVGREAVRKSLVLLKNDKGTLPLSPKARVLVAGDGADNIGKQSGGWTISWQGTGNRNDEFPGATSILGGIRDAVADAGGSVEFDVAGQYKTKPDVAIVVFGEEPYAEFQGDVETLEYQPDQKQDLALLKKLKDQGIPVVAVFLSGRPMWVNPELNASDAFVAAWLPGTEGGGVADVLFTDKAGKVQHDFAGKLSYSWPRTAAQTTVNRGDADYNPLFAYGYGLTYKDKSKVGTLPEESGVPAEARQNAGIYFRAGALRLPGRF
B8: 98 (protein)
chain: SAAIAQEGAAPAAILHPEKWPRPATQRLIDPAVEKRVDALLKQLSVEEKVGQVIQGDIGTITPEDLRKYPLGSILAGGNSGPNGDDRAPPKEWLDLADAFYRVSLEKRPGHTPIPVLFGIDAVHGHGNIGSATIFPHNIALGATRDPELLRRIGEVTAVEMTATGIDWTFAPALSVVRDDRWGRTYEGFSEDPEIVAAYSPAIVEGVQGKFGSKDFMAPGRAVASAKHFLADGGTDQGRDQGDARISEDELIRIHNAGYPPAIDAGVLTVMASFSSWQGIKHHGHKQLLTDVLKGQMGFNGFIVGDWNAHDQVPGCTKFNCPTSLIAGLDMYMAADSWKQLYENTLAQVKDGTIPMARLDDAVRRILRVKVLAGLFEKPAPKDRPGLPGLETLGSPEHRAVGREAVRKSLVLLKNDKGTLPLSPKARVLVAGDGADNIGKQSGGWTISWQGTGNRNDEFPGATSILGGIRDAVADAGGSVEFDVAGQYKTKPDVAIVVFGEEPYAEFQGDVETLEYQPDQKQDLALLKKLKDQGIPVVAVFLSGRPMWVNPELNASDAFVAAWLPGTEGGGVADVLFTDKAGKVQHDFAGKLSYSWPRTAAQTTVNRGDADYNPLFAYGYGLTYKDKSKVGTLPEESGVPAEARQNAGIYFRAGALRLPGRFL
B9: 99 (protein)
chain: B8 chain with A2T, N128K, T162A, P201A, A222S, S225C
B10: 102 (protein)
chain: B8 chain with A2T, P201A, A222I, S225C, A573S
B11: 101 (protein)
chain: B8 chain with A2T, P201A, S225C

Test: High throughput cellobiose assay: fold improvement in cellobiase activity of CelA variants over a control enzyme (Tables 2A-2D, 3, 5, 6, 7)
Type: biochemical
Conditions: 3.3 g/l cellobiose, 55° C. and pH 6.0

Molecule | Fold improvement over Control Variant No. 5 from Table 2A
B1 | ++ (++ = 1.1 to 6 fold improvement over control Variant No. 2)
B2 | ++ (++ = 1.1 to 6 fold improvement over control Variant No. 2)
B3 | ++ (++ = 1.1 to 6 fold improvement over control Variant No. 2)
B4 | ++ (++ = 1.1 to 6 fold improvement over control Variant No. 2)
B5 | ++ (++ = 1.1 to 6 fold improvement over control Variant No. 2)
B6 | ++ (++ = 1.1 to 6 fold improvement over control Variant No. 2)
B7 | ++ (++ = 1.1 to 6 fold improvement over control Variant No. 2)
B8 | +++ (+++ = 6 to 13 fold improvement over control Variant No. 2)
B9 | +++ (+++ = 6 to 13 fold improvement over control Variant No. 2)
B10 | ++ (++ = 1.1 to 6 fold improvement over control Variant No. 2)
B11 | +++ (+++ = 6 to 13 fold improvement over control Variant No. 2)

From patent US8357523B2, “Beta-glucosidase variant enzymes and related polynucleotides” (Codexis, Inc., priority 2009, dated 2013)
